Test results reported in US20040235062A1, “Method of analyzing protein occurring in cell or substance interacting with the protein” (priority 2002, published 2004).

Each substance was assayed against T1, GC-A receptors (Homo sapiens, UniProt P16066) (assay: Selectivity experiment: peptide mixture bound to GC-A expressed cell membrane fraction, MALDI-TOF-MS). Conditions: 10 pmol/μl each, CHO/GC-A vs CHO host cell membrane fraction.
T1 construct: expressed in transfected cells; host or cells: CHO/GC-A cells (Chinese hamster ovary), membrane fraction
T1 sequence (P16066 33-1061): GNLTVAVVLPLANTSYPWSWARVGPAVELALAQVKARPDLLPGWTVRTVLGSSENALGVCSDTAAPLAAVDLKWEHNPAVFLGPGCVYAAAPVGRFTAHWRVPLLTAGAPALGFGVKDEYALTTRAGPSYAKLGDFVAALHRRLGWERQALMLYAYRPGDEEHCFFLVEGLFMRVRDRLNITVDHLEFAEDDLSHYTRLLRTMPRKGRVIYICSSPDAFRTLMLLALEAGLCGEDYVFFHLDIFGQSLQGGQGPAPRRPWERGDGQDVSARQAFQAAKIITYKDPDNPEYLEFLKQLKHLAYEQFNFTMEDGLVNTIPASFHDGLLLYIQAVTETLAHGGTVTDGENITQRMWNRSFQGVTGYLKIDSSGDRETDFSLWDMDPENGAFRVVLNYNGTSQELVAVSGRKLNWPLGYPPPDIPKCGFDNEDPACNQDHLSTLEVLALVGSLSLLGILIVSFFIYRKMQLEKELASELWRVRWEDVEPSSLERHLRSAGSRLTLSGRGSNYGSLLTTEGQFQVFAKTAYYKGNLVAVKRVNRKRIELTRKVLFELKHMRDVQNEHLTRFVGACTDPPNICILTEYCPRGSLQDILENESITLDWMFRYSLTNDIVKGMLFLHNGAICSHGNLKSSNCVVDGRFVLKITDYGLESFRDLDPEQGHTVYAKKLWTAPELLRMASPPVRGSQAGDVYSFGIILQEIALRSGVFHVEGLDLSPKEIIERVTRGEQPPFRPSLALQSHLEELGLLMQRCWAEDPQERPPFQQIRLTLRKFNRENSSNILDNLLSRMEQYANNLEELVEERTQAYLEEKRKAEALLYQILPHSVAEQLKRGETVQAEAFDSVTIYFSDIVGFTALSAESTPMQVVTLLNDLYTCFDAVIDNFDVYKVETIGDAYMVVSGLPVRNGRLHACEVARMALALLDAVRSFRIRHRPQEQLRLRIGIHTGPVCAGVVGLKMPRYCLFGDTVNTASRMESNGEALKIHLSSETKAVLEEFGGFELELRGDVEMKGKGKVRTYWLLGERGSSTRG
Type: binding
Experimental: An albumin-coated membrane fraction (CHO/GC-A cells and CHO host cells) was obtained in the same manner as in Step 1. and Step 2. of Example 1.
The resulting suspension was centrifuged to obtain pellets. The resulting pellets were further washed with 500 μl of distilled water, and centrifugation was performed again to obtain a ligand-bound membrane fraction.
MALDI-TOF-MS measurement was made in the same manner as in Step 4. of Example 1.

| interaction with GC-A receptors (judgement) | Substance |
| --- | --- |
| do not interact with GC-A receptors | angiotensin I (DRVYIHPFHL; Angiotensin-1; UniProt P01019 25-34, looked up) |
| do not interact with GC-A receptors | melanocyte-stimulating hormone [α-MSH] |
| do not interact with GC-A receptors | substance P |
